Source: paper PMC3290704 (2012)

Legend:
[1] = target: T1, p53 AD1 13-37 (Homo sapiens, UniProt P04637); test: NMR HSQC titration, global fit SVD
[2] = target: T1, p53 AD1 13-37; test: NMR HSQC titration, local fit SVD
[3] = target: T1, p53 AD1 13-37; test: NMR HSQC titration, local fit SVD; remark: listed apart in the source
[4] = target: T1, p53 AD1 13-37; test: NMR HSQC titration, local fit raw
[5] = target: T1, p53 AD1 13-37; test: NMR HSQC titration, local fit raw; remark: listed apart in the source
[6] = target: T1, p53 AD1 13-37; test: NMR HSQC titration, local fit raw with concentration correction
[7] = target: T1, p53 AD1 13-37; test: NMR HSQC titration, global fit raw

T1 sequence (P04637 13-37): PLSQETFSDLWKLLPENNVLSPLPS

B1: CBP TAZ2 1764-1855 (protein)
chain: SPQESRRLSIQRCIQSLVHACQCRNANCSLPSCQKMKRVVQHTKGCKRKTNGGCPVCKQLIALCCYHAKHCQENKCPVPFCLNIKHKLRQQQ
Kd [1]: 32 µM | Kd [2]: 225 µM | Kd [3]: 33 µM | Kd [4]: 27 µM | Kd [5]: 448 µM | Kd [6]: 345 µM | Kd [7]: 180 µM
